What all share (assay): cell-based or functional assay
The target of assay [1] is HIV-2 strain 7312A envelope polypeptide (wild-type) (HIV-2 (isolate 7312A)).
The target of assay [2] is HIV-1 env glycoprotein (YU2) (HIV-1 (YU2)) (UniProt P35961).
Assay [3] addresses HIV-2 7312A envelope with site-directed mutations 660 (K to A), 662 (N to D), 663 (S to K) and 665 (D to A) of SEQ ID NO:2 (HIV-2 (isolate 7312A)).
The target in assay [4] is HIV-2 ST envelope polypeptide (wild-type) (HIV-2 (strain ST)) (UniProt P20872).
In assay [5] the target is HIV-2 UC1 envelope polypeptide (wild-type) (HIV-2 (strain UC1)) (UniProt Q76638).
Assay [6] addresses HIV-2 7312A envelope with site-directed substitutions at 675 (L to I) and 676 (A to T) (HXB2 numbering) (HIV-2 (isolate 7312A)).

Turning to 2F5 monoclonal antibody, the neutralization IC50 (JC53bl-13 HIV entry assay) in assay [1] is over 50 µg/mL; in assay [2], 25 µg/mL; in assay [3] it was under 0.1 µg/mL.
Regarding b12 monoclonal antibody, the neutralization IC50 (JC53bl-13 HIV entry assay) in assay [1] was over 50 µg/mL; in assay [2], 3 µg/mL.
For 4E10 monoclonal antibody, the neutralization IC50 (JC53bl-13 HIV entry assay) is over 50 µg/mL in assay [1]; 25 µg/mL in assay [2]; 0.1 µg/mL in assay [4]; 1.2 µg/mL in assay [5]; 0.8 µg/mL in assay [6].

The values above are taken from patent US20090162390A1.
